Data published in patent US20180303952 (published 2018).

Molecular target: T1, human CD147 (human, UniProt P35613)
T1 chain: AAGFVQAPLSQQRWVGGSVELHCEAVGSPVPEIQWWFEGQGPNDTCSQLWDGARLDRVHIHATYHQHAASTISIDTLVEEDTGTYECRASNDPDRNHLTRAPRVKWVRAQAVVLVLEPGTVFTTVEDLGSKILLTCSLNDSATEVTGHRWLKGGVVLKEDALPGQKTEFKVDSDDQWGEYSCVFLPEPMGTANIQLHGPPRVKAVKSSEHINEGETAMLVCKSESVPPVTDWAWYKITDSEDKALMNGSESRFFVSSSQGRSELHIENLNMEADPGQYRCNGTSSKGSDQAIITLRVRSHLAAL
Test: ELISA

- Kd: 0.293 nM
B1: mouse 3A11 (antibody, V domains shown)
VH: EVQLVESGGGLVQPGGSLRLSCAASGFTFSNYWMDWVRQAPGKGLEWVGEIRLKSYNYATHYAASVKGRFTISRDDSKNSVYLQMNSLKTEDTAVYYCTAAGTDYWGQGTLVTVSS
VL: SIVMTQIPKILLVSAGDRVTITCKASQSVRTDVAWYQQKPGQSPKLLIYYSSNRYTGVPDRFTGSGYGTDFTFTISTVQAEDLAVYFCQQDYSSPFTFGSGTKLEIK
